# Source: PMC6147952, “Acylated-acyl carrier protein stabilizes the Pseudomonas aeruginosa WaaP lipopolysaccharide heptose kinase” (Scientific Reports, 2018)
# T1: C-terminal hexa-histidine tagged P. aeruginosa WaaP (1–264) (P. aeruginosa, UniProt Q9HUF7 1-264, selenomethionine substituted)
# T1 construct: WaaP, lipopolysaccharide core heptose kinase of Pseudomonas aeruginosa (strains derived from PAO1), residues 1-264; A loop (54-72) is disordered in the crystal; also called WaaP-His; LPS heptose kinase WaaP; source: E. coli BL21(DE3)/pLysS, pET21b-waaP, purified (IMAC, Mono-Q, CM-sepharose, Superdex75); not shown: His6, C-terminal, kept
# T1 sequence (looked up): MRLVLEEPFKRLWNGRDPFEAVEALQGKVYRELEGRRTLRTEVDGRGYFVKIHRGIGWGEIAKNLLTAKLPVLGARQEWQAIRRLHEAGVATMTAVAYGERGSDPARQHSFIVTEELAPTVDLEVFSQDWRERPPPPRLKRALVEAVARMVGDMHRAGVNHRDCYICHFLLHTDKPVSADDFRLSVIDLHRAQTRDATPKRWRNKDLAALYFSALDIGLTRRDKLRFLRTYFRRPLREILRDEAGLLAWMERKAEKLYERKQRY
# B1: E. coli acylated acyl-carrier protein (acyl-ACP) (natural protein, UniProt P0A6A8 1-78, looked up)
# chain: MSTIEERVKKIIGEQLGVKQEEVTNNASFVEDLGADSLDTVELVMALEEEFDTEIPDEEAEKITTVQAAIDYINGHQA
# modifications: phosphopantetheine on S36 carrying a C16:0 (palmitoyl) or C18:1 acyl chain (palmitoyl modelled in the crystal); selenomethionine
# notes: acyl carrier protein of E. coli, 77 amino acids as printed; In the in vitro synthesis experiment (functional row) the ACP was purified E. coli holo-ACP palmitoylated by V. harveyi AasS; Its construct is described only in the Supplementary Information; also called palmitoyl-ACP; source: endogenous, E. coli BL21(DE3)/pLysS, co-purified with WaaP-His
# Biological target: T1, C-terminal hexa-histidine tagged P. …
# Test: crystal structure; selenomethionine WaaP-His co-purified with E. coli acyl-ACP; hanging drops at 4 °C, 100 mM HEPES-NaOH pH 7.4, 5% Jeffamine M-600; 2.5 Å
# Details: both partners purified
binder,measurement,value
B1,stoichiometry N,1
